Test results reported in US20170334973A1 (INTEGRATED BIOTHERAPEUTICS, published 2017).

Experiments:
SUDV VLP = molecular target: T1, SUDV VLP (Sudan virus (SUDV), UniProt Q66814 33-676); assay: ELISA
T1 sequence: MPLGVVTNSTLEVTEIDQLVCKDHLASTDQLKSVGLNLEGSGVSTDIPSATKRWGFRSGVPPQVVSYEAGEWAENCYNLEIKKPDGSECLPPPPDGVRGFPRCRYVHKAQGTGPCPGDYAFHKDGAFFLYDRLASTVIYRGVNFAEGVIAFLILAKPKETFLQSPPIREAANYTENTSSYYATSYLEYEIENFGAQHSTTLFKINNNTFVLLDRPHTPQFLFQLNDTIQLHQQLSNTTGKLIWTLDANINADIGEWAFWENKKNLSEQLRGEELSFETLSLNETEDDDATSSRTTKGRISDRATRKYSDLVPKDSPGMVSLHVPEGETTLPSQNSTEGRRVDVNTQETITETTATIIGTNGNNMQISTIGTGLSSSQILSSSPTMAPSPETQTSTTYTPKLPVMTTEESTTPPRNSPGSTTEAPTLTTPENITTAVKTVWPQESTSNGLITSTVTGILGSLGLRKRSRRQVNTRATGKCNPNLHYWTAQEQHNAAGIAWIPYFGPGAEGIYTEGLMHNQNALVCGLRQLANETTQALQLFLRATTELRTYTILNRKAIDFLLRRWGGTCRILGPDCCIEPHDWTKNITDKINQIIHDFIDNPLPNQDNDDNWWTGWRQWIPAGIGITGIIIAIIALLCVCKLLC

EBOV VLP = molecular target: T2, EBOV VLP (Ebola virus (EBOV), UniProt Q05320 33-676); assay: ELISA
T2 sequence: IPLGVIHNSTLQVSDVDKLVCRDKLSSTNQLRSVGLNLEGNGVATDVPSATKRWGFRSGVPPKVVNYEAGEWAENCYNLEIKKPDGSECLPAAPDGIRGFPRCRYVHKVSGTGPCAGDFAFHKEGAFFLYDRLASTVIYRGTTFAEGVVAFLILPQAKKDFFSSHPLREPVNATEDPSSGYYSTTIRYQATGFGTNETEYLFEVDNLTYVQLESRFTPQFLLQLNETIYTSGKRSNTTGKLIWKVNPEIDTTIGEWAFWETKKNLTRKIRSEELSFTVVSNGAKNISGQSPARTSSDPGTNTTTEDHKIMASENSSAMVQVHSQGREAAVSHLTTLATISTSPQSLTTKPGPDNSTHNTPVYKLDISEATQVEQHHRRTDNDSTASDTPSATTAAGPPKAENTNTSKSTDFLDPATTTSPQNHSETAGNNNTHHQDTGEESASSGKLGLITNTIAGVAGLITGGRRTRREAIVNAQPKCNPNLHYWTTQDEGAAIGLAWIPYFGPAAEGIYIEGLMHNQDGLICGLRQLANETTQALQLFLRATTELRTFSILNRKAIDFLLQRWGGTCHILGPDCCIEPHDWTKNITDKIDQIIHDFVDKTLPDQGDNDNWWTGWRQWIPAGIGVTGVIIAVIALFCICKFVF

| Binder | EC50 (SUDV VLP) [pM] | EC50 (EBOV VLP) [pM] |
| --- | --- | --- |
| FVM29 (antibody, V domains shown) VH: EVQLVQSGAEVKRPGESLKISCQTSGNSFTNNWISWVRQMPGKGLEWMGAIDPSDSETRYSPSFQGQVTISADKSINTAYLQWSSLKASDTATYYCVKGSETWGQGVLVTVSS VL: QPVLTQPASLSASPGASASLTCTFSGGINVAGYNILWYQQKAGSPPRYLLRYKSDSTKDQGSGVPSRFSGSKDASANTGILRISGLQSEDEADYYCAIGHSSGWIFGGGTRLTVL | 24100 | – |
| FVM08 (antibody, V domains shown) VH: EVQLVQSGAEVKRPGESLTISCKTSGYSFTDSWVAWVRQMPGKGLEWMGSIYPGDSDTRYNPSFEGQVTISADKSISTTYLQWSSLRASDTATYYCVKGADDWGQGVLVTVSS VL: QPVLTQPASLSASPGASASLTCTFSGGINVAGYNILWYQQKAGSPPRYLLRYKSDSTKDQGSGVPSRFSGSKDASANTGILRISGLQSEDEADYYCAIGHSSGWIFGGGTRLTVL | 135 | 193 |
| FVM39 (antibody, V domains shown) VH: EVQLVQSGAEVKRPGESLRISCKTSGYSFTDSWISWVRQMPGKGLEWLGSIYPGDSETKYNPSFQGHVTISADKSVTTTYLKWSSLKASDTATYYCVKGSETWGQGVLVTVSS VL: QPVLTQPASLSASPGASASLTCTFSGGINVAGYNILWYQQKAGSPPRYLLRYKSDSTKDQGSGVPSRFSGSKDASANTGILRISGLQSEDEADYYCAIGHSSGWIFGGGTRLTVL | 47 | 80 |
| FVM07 (antibody, V domains shown) VH: EVQLVQSGAEVKRPGESLTISCKTSGYSFTDSWIGWVRQMPGKGLEWMGSIYPGDSDTKYNPSFQGHVTISADKSISTTYLQWSSLKASDTATYYCVAREAYWGQGVLVTVSS VL: QPVLTQPASLSASPGASASLTCTFSGGINVAGYHIFWYQQKPGSPPRYLLRYKSDSDKGQGSGVPSRFSGSKDASANTGILRISGLQSEDEADYYCAIGHSSGVLFGGGTRLTVL | 18200 | 1710 |
| FVM33 (antibody, V domains shown) VH: QVQLVQSGAEVKRPGESLKISCKTSRYSFTSSWIGWVRQMPGKGLEWLGSIYPGDSDTRYNPSFQGHVTISADKSVTTTYLKWSSLKASDTATYYCVKGSETWGQGVLVTVSS VL: QPVLTQPASLSASPGASASLTCTFSGGINVAGYNILWYQQKAGSPPRYLLRYKSDSTKDQGSGVPSRFSGSKDASANTGILRISGLQSEDEADYYCAIGHSSGWIFGGGTRLTVL | 80 | 173 |
| FVM06 (antibody, V domains shown) VH: EVQLVQSGAEVKRPGESLTISCKTSGYSFTNYWISWVRQMPGEGLEWMGAIDPSDSDTRYSPSFQGQVTMSADKSITTAYLQWSSLKASDTATYYCVKGSETWGQGVLVTVSS VL: QPVLTQPASLSASPGASASLTCTFSGGINVAGYNILWYQQKAGSPPRYLLRYKSDSTKDQGSGVPSRFSGSKDASANTGILRISGLQSEDEADYYCAIGHSSGWIFGGGTRLTVL | 213 | 215 |
| FVM31 (antibody, V domains shown) VH: QVQLVQSGAEVKRPGESLTISCKTSGYSFTDSWVAWVRQMPGKGLEWLGSIYPGDSDARYNPSFQGHVTISADTSVTTTYLKWSSLKASDTATYYCVKGSETWGQGVLVTVSS VL: KPMLTQPASLSASPGASASLTCTFSGGINVAGYNILWYQQKAGSPPRYLLRYKSDSTKDQGSGVPSRFSGSKDASANTGILRISGLQSEDEADYYCAIGHSSGWIFGGGTRLTVL | 193 | 320 |
| FVM26 (antibody, V domains shown) VH: QVQLVQSGAEVKRPGESLRISCKTSGYTFTDYWIAWVRQMPGKGLEWMGSIYPGDSETKYNPSFQGHVTISADKSVTTTYLKWSRLKASDTATYYCVKGSETWGQGVLVTVSS VL: QPVLTQPASLSASPGASASLTCTFSGGINVAGYNILWYQQKAGSPPRYLLRYKSDSTKDQGSGVPSRFSGSKDASANTGILRISGLQSEDEADYYCAIGHSSGWIFGGGTRLTVL | 153 | 260 |
| FVM16 (antibody, V domains shown) VH: EVQLVQSGAEVKRPGESLKISCRTSGYSFTSTWINWVRQMPGKGLEWLGSIYPGDSETKYNPSFQGHVTISADKSVTTTYLKWSSLKASDTATYYCVKGSETWGQGVLVTVSS VL: KPMLTQPASLSASPGASASLTCTFSGGINVAGYNILWYQQKAGSPPRYLLRYKSDSTKDQGSGVPSRFSGSKDASANTGILRISGLQSEDEADYYCAIGHSSGWVFGGGTRLTVL | 1430 | 655 |
| FVM11 (antibody, V domains shown) VH: EVQLVQSGAEVKRPGESLTISCKTSGYSFTDSWVAWVRQMPGKGLEWLGSIYPGDSETKYNPSFQGHVTISADKSVTTTYLKWSSLKASDTATYYCVKGSETWGQGVLVTVSS VL: NFMLTQPASLSASPGASASLTCTFSGGINVAGYNILWYQQKAGSPPRYLLRYKSDSTKDQGSGVPSRFSGSKDASANTGILRISGLQSEDEADYYCAIGHSSGWIFGGGTRLTVL | 189 | 219 |
| FVM15 (antibody, V domains shown) VH: QVQLVQSGAEVKRPGESLRISCKTSGYTFTDYWIAWVRQMPGKGLEWMGSIYPGDSETKYNPSFQGHVTISADKSVTTTYLKWSRLKASDTATYYCVKGSETWGQGVLVTVSS VL: QPVLTQPASLSASPGASASLTCTFSGGINVAGYNILWYQQKAGSPPRYLLRYKSDSTKDQGSGVPSRFSGSKDASANTGILRISGLQSEDEADYYCAIGHSSGWIFGGGTRLTVL | 129 | 151 |
| FVM27 (antibody, V domains shown) VH: EVQLVQSGAEVKRPGESLKISCKTSGYSFASSWISWVRQMPGKGLEWMGAIDPSDSATRYSPSFQGQVTISADKSISTAYLQWSSLKASDTATYYCVKGSETWGQGVLVTVSS VL: QPVLTQPASLSASPGASASLTCTFSGGINVAGYNILWYQQKAGSPPRYLLRYKSDSTKDQGSGVPSRFSGSKDASANTGILRISGLQSEDEADYYCAIGHSSGWIFGGGTRLIVL | 120 | 233 |
| FVM34 (antibody, V domains shown) VH: EVQLVESGAEVKRPGESLTISCKTSGYSFTDSWVSWVRQMPGKGLEWMGSIYPGDSETKYNPSFQGHVTISADKSVTTTYLKWSSLKASDTATYYCVKGSETWGQGVLVTVSS VL: QPVLTQPASLSASPGASASLTCTFSGGINVAGYYIHWYQQKPGSPPRYLLRYKSDSDKHQGSGVPSRFSGSKDASANTGILRISGLQSEDEADYYCAIGHSSGWVFGGGTRLTVL | 227 | 193 |
| FVM22 (antibody, V domains shown) VH: EVQLVQSGAEVKRPGESLTISCKTSGYSFTDSWVAWVRQMPGKGLEWLGSIYPGDSETKYNPSFQGHVTISADKSISTAYLQWSSLKASDTATYYCAKGSETWGQGVLVTVSS VL: SSGLTQPASLSASPGASASLTCTFSGGINVAGYNILWYQQKAGSPPRYLLRYKSDSTKDQGSGVPSRFSGSKDASANTGILRISGLQSEDEADYYCAIGHSSGWIFGGGTRLTVL | 173 | 253 |
| FVM14 (antibody, V domains shown) VH: EVQLVQSGAEVKRPGESLKISCQTSGYSFTSTWITWVRQMPGKGLEWLGSIYPGDSETKYNPSFQGHVTISADKSISTTYLQWNSLKASDTATYYCVKGSETWGQGVLVTVSS VL: QAVVTQPASLSASPGASASLTCTFSGGINVAGYNILWYQQKAGSPPRYLLRYKSDSTKDQGSGVPSRFSGSKDASANTGILRISGLQSEDEADYYCAIGHSSGWIFGGGTRLTVL | 157 | 780 |
| FVM04 (antibody, V domains shown) VH: EVQLVQSGGGLVQPGGSMRLSCEASGLSLSDYFMHWVRQAQGKGLEWIGLIQTKAFTYKTEYPAAVKGRFTISRDDSKNTLYLQMSSLKPEDTALYYCIAVTPDFYYWGQGVLVTVSS VL: DVVMTQSPSFLSASVGDRVTITCRASQDITINLNWFQHKPGKAPKRLIYVASRLERGVPSRFSGSGSGTEFTLTISSLQPEDFATYYCQQYNNYPLTFGPGTKLDIKR | 193 | 306 |
| FVM05 (antibody, V domains shown) VH: QVQLQESGPGLVKPSETLSLTCAVSGFSISSGYGWSWIRQPPGKGLEWIGYIGGSSGSTSYNPSLKSRVTLSADTSKNQFSLKLSSVTAADTAVYYCARRYSSYRSWFDVWGPGVLVTVSS VL: SSGLTQPRSVSVSPGQTARITCGGDNIGSKSVHWYQQKPPQAPVLVIYADSERPSGIPERFSGSNSGNTATLTISGVEAGDEADYYCQVWDSSSDHWVFGGGTRLTVL | – | 18000 |
